Assay results published in US20240166729A1.
Read-outs that look alike come from different tables or passages of the source.

Columns and labels:
mAb-EspB-B7 [1] = target: mAb-EspB-B7
mAb-EspB-B7 [2] = target: mAb-EspB-B7; remark: listed apart in the source
[3] = target: Peptide #49 (enteropathogenic E. coli (EPEC))
[4] = target: Peptide #50 (enteropathogenic E. coli (EPEC))
[5] = target: Peptide #49 + 50 (enteropathogenic E. coli (EPEC))

CTSAQKASQVAEEAADC (modifications not checked) [Peptide #49]
IC50 (read off the curve) (mAb-EspB-B7 [1]): 0.8 mg/L

CTSAQKASQVAEEAADAAQEC (modifications not checked) [Peptide #49 + 50]
IC50 (read off the curve) (mAb-EspB-B7 [2]): 2 mg/L

B1: mAb-EspB-B7 (antibody, V domains shown)
VH: EVQLLESGGGLVQPGGSLRLSCAASGFTFSHYAMNWVRQAPGKGLEWVSAINSNGDSTYYPDTVKDRFTISRDNSKNTLYLQMNSLRAEDTAVYYCARDRRAGYFDYWGQGTLVTVSS
VL: DIVLTQPPSASGTPGQRVTISCSGSRDNIGKNYVSWYQQLPGTAPKLLIYRNNQRPSGVPDRFSGSKSGTSASLAISGLRSEDEADYYCSAWDTSLNAYVFGPGTQLTVL
EC50 (read off the curve) [3]: 0.5 mg/L | EC50 (read off the curve) [4]: 0.4 mg/L | EC50 (read off the curve) [5]: 0.3 mg/L
